Source: the supplement of paper PMC5998384

Tests used:
HeLa Kyoto [1] = test: solubility in G1/S (NP-40 vs SDS abundance) (log2 ratio); higher = more soluble; conditions: cell cycle stage: G1/S
HeLa Kyoto [2] = test: melting temperature (median over replicates), in situ; higher = more thermally stable
HeLa Kyoto [3] = test: solubility change mitosis vs G1/S (difference of NP-40 vs SDS log2 ratios) (log2 ratio difference); higher = more soluble in mitosis
HeLa Kyoto [4] = test: thermal stability score vs G1/S (z-score of summed log2 fold changes over temperatures); higher = more thermally stable than in G1/S
[5] = cell cycle stage: early G1 (4.5 h after nocodazole release)
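For melting temperature (median over replicates), in situ in this document: HeLa Kyoto cells synchronized by double thymidine or nocodazole block, proteins quantified by TMT10plex mass spectrometry, three independent biological replicates.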
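For solubility change mitosis vs G1/S (difference of NP-40 vs SDS log2 ratios) in this document: synchronized HeLa Kyoto cells (double thymidine block for G1/S, nocodazole release for mitosis), protein amounts in NP-40 versus SDS lysates quantified by mass spectrometry, three biological replicates.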
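For solubility in G1/S (NP-40 vs SDS abundance) in this document: HeLa Kyoto cells arrested at G1/S by double thymidine block, proteins quantified by TMT10plex mass spectrometry in mild NP-40 versus SDS extracts, three biological replicates.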
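For thermal stability score vs G1/S (z-score of summed log2 fold changes over temperatures) in this document: synchronized HeLa Kyoto cells, proteins quantified by TMT10plex mass spectrometry, three biological replicates, mitosis taken 0.5 h after nocodazole release, G1/S directly after double thymidine block.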

Substance | solubility in G1/S (log2) (HeLa Kyoto [1]) | melting temperature (HeLa Kyoto [2]; cell cycle stage: G1/S) | melting temperature (HeLa Kyoto [2]; cell cycle stage: mitosis) | solubility change mitosis (log2) (HeLa Kyoto [3]) | thermal stability score (HeLa Kyoto [4]; [5]) | thermal stability score (HeLa Kyoto [4]; cell cycle stage: mitosis)
MSFSRALLWARLPAGRQAGHRAAICSALRPHFGPFPGVLGQVSVLATASSSASGGSKIPNTSLFVPLTVKPQGPSADGDVGAELTRPLDKNEVKKVLDKFYKRKEIQKLGADYGLDARLFHQAFISFRNYIMQSHSLDVDIHIVLNDICFGAAHADDLFPFFLRHAKQIFPVLDCKDDLRKISDLRIPPNWYPDARAMQRKIIFHSGPTNSGKTYHAIQKYFSAKSGVYCGPLKLLAHEIFEKSNAAGVPCDLVTGEERVTVQPNGKQASHVSCTVEMCSVTTPYEVAVIDEIQMIRDPARGWAWTRALLGLCAEEVHLCGEPAAIDLVMELMYTTGEEVEVRDYKRLTPISVLDHALESLDNLRPGDCIVCFSKNDIYSVSRQIEIRGLESAVIYGSLPPGTKLAQAKKFNDPNDPCKILVATDAIGMGLNLSIRRIIFYSLIKPSINEKGERELEPITTSQALQIAGRAGRFSSRFKEGEVTTMNHEDLSLLKEILKRPVDPIRAAGLHPTAEQIEMFAYHLPDATLSNLIDIFVDFSQVDGQYFVCNMDDFKFSAELIQHIPLSLRVRYVFCTAPINKKQPFVCSSLLQFARQYSRNEPLTFAWLRRYIKWPLLPPKNIKDLMDLEAVHDVLDLYLWLSYRFMDMFPDASLIRDLQKELDGIIQDGVHNITKLIKMSETHKLLNLEGFPSGSQSRLSGTLKSQARRTRGTKALGSKATEPPSPDAGELSLASRLVQQGLLTPDMLKQLEKEWMTQQTEHNKEKTESGTHPKGTRRKKKEPDSD [SUPV3L1] | -0.0284 | 51.4 °C | 51.5 °C | -0.0848 | 0.374 | 0.138
MEELSADEIRRRRLARLAGGQTSQPTTPLTSPQRENPPGPPIAASAPGPSQSLGLNVHNMTPATSPIGASGVAHRSQSSEGVSSLSSSPSNSLETQSQSLSRSQSMDIDGVSCEKSMSQVDVDSGIENMEVDENDRREKRSLSDKEPSSGPEVSEEQALQLVCKIFRVSWKDRDRDVIFLSSLSAQFKQNPKEVFSDFKDLIGQILMEVLMMSTQTRDENPFASLTATSQPIAAAARSPDRNLLLNTGSNPGTSPMFCSVASFGASSLSSLYESSPAPTPSFWSSVPVMGPSLASPSRAASQLAVPSTPLSPHSAASGTAAGSQPSSPRYRPYTVTHPWASSGVSILSSSPSPPALASSPQAVPASSSRQRPSSTGPPLPPASPSATSRRPSSLRISPSLGASGGASNWDSYSDHFTIETCKETDMLNYLIECFDRVGIEEKKAPKMCSQPAVSQLLSNIRSQCISHTALVLQGSLTQPRSLQQPSFLVPYMLCRNLPYGFIQELVRTTHQDEEVFKQIFIPILQGLALAAKECSLDSDYFKYPLMALGELCETKFGKTHPVCNLVASLRLWLPKSLSPGCGRELQRLSYLGAFFSFSVFAEDDVKVVEKYFSGPAITLENTRVVSQSLQHYLELGRQELFKILHSILLNGETREAALSYMAAVVNANMKKAQMQTDDRLVSTDGFMLNFLWVLQQLSTKIKLETVDPTYIFHPRCRITLPNDETRVNATMEDVNDWLTELYGDQPPFSEPKFPTECFFLTLHAHHLSILPSCRRYIRRLRAIRELNRTVEDLKNNESQWKDSPLATRHREMLKRCKTQLKKLVRCKACADAGLLDESFLRRCLNFYGLLIQLLLRILDPAYPDITLPLNSDVPKVFAALPEFYVEDVAEFLFFIVQYSPQALYEPCTQDIVMFLVVMLCNQNYIRNPYLVAKLVEVMFMTNPAVQPRTQKFFEMIENHPLSTKLLVPSLMKFYTDVEHTGATSEFYDKFTIRYHISTIFKSLWQNIAHHGTFMEEFNSGKQFVRYINMLINDTTFLLDESLESLKRIHEVQEEMKNKEQWDQLPRDQQQARQSQLAQDERVSRSYLALATETVDMFHILTKQVQKPFLRPELGPRLAAMLNFNLQQLCGPKCRDLKVENPEKYGFEPKKLLDQLTDIYLQLDCARFAKAIADDQRSYSKELFEEVISKMRKAGIKSTIAIEKFKLLAEKVEEIVAKNARAEIDYSDAPDEFRDPLMDTLMTDPVRLPSGTIMDRSIILRHLLNSPTDPFNRQTLTESMLEPVPELKEQIQAWMREKQNSDH [UBE4B] | -0.0721 | 51.3 °C | 51.8 °C | -0.0982 | 1.2 | 2.15
MDDKELIEYFKSQMKEDPDMASAVAAIRTLLEFLKRDKGETIQGLRANLTSAIETLCGVDSSVAVSSGGELFLRFISLASLEYSDYSKCKKIMIERGELFLRRISLSRNKIADLCHTFIKDGATILTHAYSRVVLRVLEAAVAAKKRFSVYVTESQPDLSGKKMAKALCHLNVPVTVVLDAAVGYIMEKADLVIVGAEGVVENGGIINKIGTNQMAVCAKAQNKPFYVVAESFKFVRLFPLNQQDVPDKFKYKADTLKVAQTGQDLKEEHPWVDYTAPSLITLLFTDLGVLTPSAVSDELIKLYL [EIF2B1] | 0.101 | 57.1 °C | 55.4 °C | -0.134 | -1.83 | -1.69
MEPFSCDTFVALPPATVDNRIIFGKNSDRLYDEVQEVVYFPAVVHDNLGERLKCTYIEIDQVPETYAVVLSRPAWLWGAEMGANEHGVCIGNEAVWGREEVCDEEALLGMDLVRLGLERADTAEKALNVIVDLLEKYGQGGNCTEGRMVFSYHNSFLIADRNEAWILETAGKYWAAEKVQEGVRNISNQLSITTKIAREHPDMRNYAKRKGWWDGKKEFDFAAAYSYLDTAKMMTSSGRYCEGYKLLNKHKGNITFETMMEILRDKPSGINMEGEFLTTASMVSILPQDSSLPCIHFFTGTPDPERSVFKPFIFVPHISQLLDTSSPTFELEDLVKKKSHFKPDRRHPLYQKHQQALEVVNNNEEKAKIMLDNMRKLEKELFREMESILQNKHLDVEKIVNLFPQCTKDEIQIYQSNLSVKVSS [SCRN3] | 0.271 | 52.9 °C | 52.3 °C | -0.25 | -0.926 | -0.525
MSTAAVPELKQISRVEAMRLGPGWSHSCHAMLYAANPGQLFGRIPMRFSVLMQMRFDGLLGFPGGFVDRRFWSLEDGLNRVLGLGLGCLRLTEADYLSSHLTEGPHRVVAHLYARQLTLEQLHAVEISAVHSRDHGLEVLGLVRVPLYTQKDRVGGFPNFLSNAFVSTAKCQLLFALKVLNMMPEEKLVEALAAATEKQKKALEKLLPASS [NUDT16L1] | -0.521 | 52 °C | 52.3 °C | 0.104 | -0.0688 | -2.32
MVQLYNLHPFGSQQVVPCKLEPDRFCGGGRDALFVAAGCKVEAFAVAGQELCQPRCAFSTLGRVLRLAYSEAGDYLVAIEEKNKATFLRAYVNWRNKRTENSRVCIRMIGHNVEGPFSKAFRDQMYIIEMPLSEAPLCISCCPVKGDLLVGCTNKLVLFSLKYQIINEEFSLLDFERSLIIHIDNITPVEVSFCVGYVAVMSDLEVLIVKLESGPKNGERVHHHPHKTNNRIRRTEEGISNEISQLESDDFVICQKPLELLGEKSEQSGLSVTLESTGLADEKRKYSHFQHLLYRRFAPDISSYVLSDDIKLHSLQLLPIYQTGSLTSDGKNLSQEKELLSLFCFFSLPHVGYLYMVVKSVELMSVYQYPEKSQQAVLTPQFLHVITSNNLQCFTVRCSAAAAREEDPYMDTTLKACPPVSMDVCALRIQLFIGLKAICHFKNHIILLTKAEPEAIPERRQSPKRLLSRKDTSVKIKIPPVAEAGWNLYIVNTISPVQLYKEMVDYSNTYKTVKTQSCIHLLSEAHLLVRAALMDASQLEPGEKAELLEAFKESCGHLGDCYSRLDSQHSHLTLPYYKMSGLSMAEVLARTDWTVEDGLQKYERGLIFYINHSLYENLDEELNEELAAKVVQMFYVAEPKQVPHILCSPSMKNINPLTAMSYLRKLDTSGFSSILVTLTKAAVALKMGDLDMHRNEMKSHSEMKLVCGFILEPRLLIQQRKGQIVPTELALHLKETQPGLLVASVLGLQKNNKIGIEEADSFFKVLCAKDEDTIPQLLVDFWEAQLVACLPDVVLQELFFKLTSQYIWRLSKRQPPDTTPLRTSEDLINACSHYGLIYPWVHVVISSDSLADKNYTEDLSKLQSLICGPSFDIASIIPFLEPLSEDTIAGLSVHVLCRTRLKEYEQCIDILLERCPEAVIPYANHELKEENRTLWWKKLLPELCQRIKCGGEKYQLYLSSLKETLSIVAVELELKDFMNVLPEDGTATFFLPYLLYCSRKKPLT [HPS3] | -0.0533 | 51.4 °C | 50.6 °C | -0.103 | 0.612 | 0.736
MGGFFSSIFSSLFGTREMRILILGLDGAGKTTILYRLQVGEVVTTIPTIGFNVETVTYKNLKFQVWDLGGQTSIRPYWRCYYSNTDAVIYVVDSCDRDRIGISKSELVAMLEEEELRKAILVVFANKQDMEQAMTSSEMANSLGLPALKDRKWQIFKTSATKGTGLDEAMEWLVETLKSRQ [ARL1] | -0.143 | 50.3 °C | 50.9 °C | -0.202 | 2.08 | -0.342
MYO5C | -0.665 | 50.9 °C | – | 0.291 | 0.384 | 1.14
MSKSKDDAPHELESQFILRLPPEYASTVRRAVQSGHVNLKDRLTIELHPDGRHGIVRVDRVPLASKLVDLPCVMESLKTIDKKTFYKTADICQMLVSTVDGDLYPPVEEPVASTDPKASKKKDKDKEKKFIWNHGITLPLKNVRKRRFRKTAKKKYIESPDVEKEVKRLLSTDAEAVSTRWEIIAEDETKEAENQGLDISSPGMSGHRQGHDSLEHDELREIFNDLSSSSEDEDETQHQDEEDINIIDTEEDLERQLQDKLNESDEQHQENEGTNQLVMGIQKQIDNMKGKLQETQDRAKRQEDLIMKVENLALKNRFQAVLDELKQKEDREKEQLSSLQEELESLLEK [TAF7] | 0.55 | 52 °C | 51.6 °C | 0.081 | 1.09 | 3.64
MSSESSKKRKPKVIRSDGAPAEGKRNRSDTEQEGKYYSEEAEVDLRDPGRDYELYKYTCQELQRLMAEIQDLKSRGGKDVAIEIEERRIQSCVHFMTLKKLNRLAHIRLKKGRDQTHEAKQKVDAYHLQLQNLLYEVMHLQKEITKCLEFKSKHEEIDLVSLEEFYKEAPPDISKAEVTMGDPHQQTLARLDWELEQRKRLAEKYRECLSNKEKILKEIEVKKEYLSSLQPRLNSIMQASLPVQEYLFMPFDQAHKQYETARHLPPPLYVLFVQATAYGQACDKTLSVAIEGSVDEAKALFKPPEDSQDDESDSDAEEEQTTKRRRPTLGVQLDDKRKEMLKRHPLSVMLDLKCKDDSVLHLTFYYLMNLNIMTVKAKVTTAMELITPISAGDLLSPDSVLSCLYPGDHGKKTPNPANQYQFDKVGILTLSDYVLELGHPYLWVQKLGGLHFPKEQPQQTVIADHSLSASHMETTMKLLKTRVQSRLALHKQFASLEHGIVPVTSDCQYLFPAKVVSRLVKWVTVAHEDYMELHFTKDIVDAGLAGDTNLYYMALIERGTAKLQAAVVLNPGYSSIPPVFQLCLNWKGEKTNSNDDNIRAMEGEVNVCYKELCGPWPSHQLLTNQLQRLCVLLDVYLETESHDDSVEGPKEFPQEKMCLRLFRGPSRMKPFKYNHPQGFFSHR [THOC5] | -0.323 | 51.4 °C | 50.4 °C | 0.281 | 0.533 | 0.546
MTQAEIKLCSLLLQEHFGEIVEKIGVHLIRTGSQPLRVIAHDTGTSLDQVKKALCVLVQHNLVSYQVHKRGVVEYEAQCSRVLRMLRYPRYIYTTKTLYSDTGELIVEELLLNGKLTMSAVVKKVADRLTETMEDGKTMDYAEVSNTFVRLADTHFVQRCPSVPTTENSDPGPPPPAPTLVINEKDMYLVPKLSLIGKGKRRRSSDEDAAGEPKAKRPKYTTDNKEPIPDDGIYWQANLDRFHQHFRDQAIVSAVANRMDQTSSEIVRTMLRMSEITTSSSAPFTQPLSSNEIFRSLPVGYNISKQVLDQYLTLLADDPLEFVGKSGDSGGGMYVINLHKALASLATATLESVVQERFGSRCARIFRLVLQKKHIEQKQVEDFAMIPAKEAKDMLYKMLSENFMSLQEIPKTPDHAPSRTFYLYTVNILSAARMLLHRCYKSIANLIERRQFETKENKRLLEKSQRVEAIIASMQATGAEEAQLQEIEEMITAPERQQLETLKRNVNKLDASEIQVDETIFLLESYIECTMKRQ [POLR3C] | 0.132 | 50.5 °C | 51.1 °C | -0.0973 | 1.65 | 1.67
